For the assay, the target named is purified recombinant M1 protein from influenza virus labeled with His-tag (influenza virus). The assay can be described thus: Western blot of 0.1-10 ng M1-HisTag, HRP-conjugated antibody 1:2000, chemiluminescence. (In general: In western blotting, separated proteins are transferred to a membrane and probed.)

As for “antibody against His-tag conjugated with horseradish peroxidase (Sigma, #A7058-1VL)”, the limit of detection was found to be 500 pg.
